The source of these data is US20120171195A1.

Assay [1] deals with HLA-B*4006 (human) (UniProt P01889). Put plainly: Luminex beads; MAb 1/200; PBS only.
Assay [2] deals with HLA-B*4501 (human). Description: Luminex beads; MAb 1/200; PBS only.
Assay [3] deals with HLA-B*5801 (human). Put plainly: Luminex beads; MAb 1/200; PBS only.
For assay [4], the target named is HLA-Cw*0202 (human). Description: Luminex beads; MAb 1/200; PBS only.
The target in assay [5] is HLA-Cw*0501 (human). Description: Luminex beads; MAb 1/200; PBS only.
For assay [6], the target named is HLA-Cw*1701 (human). Put plainly: Luminex beads; MAb 1/200; PBS only.
Assay [7] deals with HLA-Cw*1802 (human) (UniProt P10321). Put plainly: Luminex beads; MAb 1/200; PBS only.
Assay [8] has as its target HLA-B*1401 (human) (UniProt P01889). Put plainly: Luminex beads; MAb 1/200; competitor IgG-free serum.
The target of assay [9] is HLA-B*4006 (human) (UniProt P01889). Described as above.
The target in assay [10] is HLA-B*5201 (human). The description is as above.
For assay [11], the target named is HLA-B*5801 (human). The assay is described as above.
The target in assay [12] is HLA-Cw*0304 (human). The assay is described as above.
The target in assay [13] is HLA-Cw*0501 (human). The description is as above.
Assay [14] deals with HLA-Cw*0602 (human) (UniProt P10321). The assay is described as above.
In assay [15] the target is HLA-Cw*1701 (human). The assay is described as above.
Assay [16] concerns the target HLA-Cw*1802 (human) (UniProt P10321). Described as above.
Assay [17] has as its target HLA-A*2402 (A24) (human) (UniProt P04439). Description: Luminex single-antigen beads; MEM-E/02 1/600; serum Mi92 1/100.
Assay [18] addresses HLA-A*2403 (A24) (human). The assay is described as above.
Assay [19] concerns the target HLA-A*2501 (A25) (human). Described as above.
In assay [20] the target is HLA-A*2601 (A26) (human). The assay is described as above.
Assay [21] deals with HLA-A*3002 (A30) (human) (UniProt P04439). Described as above.
The target in assay [22] is HLA-A*3201 (A32) (human). The description is as above.
Assay [23] concerns the target HLA-A*3301 (A33) (human). The description is as above.
Assay [24] has as its target HLA-B*0801 (B8) (human) (UniProt P01889). The assay is described as above.
For assay [25], the target named is HLA-B*1301 (B13) (human). The description is as above.
Assay [26] has as its target HLA-B*1401 (B64) (human) (UniProt P01889). Described as above.
Assay [27] has as its target HLA-B*1511 (B75) (human) (UniProt P01889). The description is as above.
Assay [28] deals with HLA-B*1513 (B77) (human). Described as above.
Assay [29] concerns the target HLA-B*1801 (B18) (human). Described as above.
Assay [30] addresses HLA-B*2708 (B27) (human) (UniProt P01889). The description is as above.
In assay [31] the target is HLA-B*3901 (B39) (human) (UniProt P01889). Described as above.
Assay [32] deals with HLA-B*4403 (B44) (human). The assay is described as above.
The target in assay [33] is HLA-B*4501 (B45) (human). The assay is described as above.
The target in assay [34] is HLA-B*4801 (B48) (human) (UniProt P01889). The assay is described as above.
Assay [35] concerns the target HLA-B*4901 (B49) (human). The assay is described as above.
Assay [36] concerns the target HLA-B*5301 (B53) (human). Described as above.
For assay [37], the target named is HLA-B*5401 (B54) (human) (UniProt P01889). The description is as above.
The target in assay [38] is HLA-B*6701 (B67) (human) (UniProt P01889). The description is as above.
In assay [39] the target is HLA-Cw*0401 (Cw4) (human). The description is as above.
Assay [40] deals with HLA-Cw*1203 (Cw12) (human) (UniProt P10321). Described as above.

For the substance “murine monoclonal antibody (MAb) MEM-E/02”, the MFI in assay [1] is 7010 MFI; in assay [2] it was 3670 MFI; in [3], 2830 MFI; in assay [4], 3020 MFI; in assay [5], 5830 MFI; in assay [6], 2270 MFI. In addition, the MFI in assay [7] is 8830 MFI; in [8], 5370 MFI; in [9], 7410 MFI; in assay [10], 2020 MFI; in [11], 3420 MFI; in assay [12] it was 2030 MFI. Further, the MFI in assay [13] worked out at 6260 MFI; in [14], 2190 MFI; in [15] it was 1930 MFI; in assay [16] it was 8810 MFI.
Take murine monoclonal antibody MAb MEM-E/02: the MFI in [17] was less than 500 MFI; in assay [18], less than 500 MFI; in [19], 722 MFI; in assay [20], less than 500 MFI; in [21] it was less than 500 MFI; in assay [22] it was less than 500 MFI. Moreover, the MFI in assay [23] is 522 MFI; in assay [24] it was 990 MFI; in assay [25], 978 MFI; in [26], 701 MFI; in assay [27] it was 946 MFI; in assay [28], less than 500 MFI. In addition, the MFI in [29] is less than 500 MFI; in [30], less than 500 MFI; in assay [31], 737 MFI; in [32], 600 MFI; in [33] it was less than 500 MFI; in assay [34], less than 500 MFI. Also, the MFI in assay [35] is 890 MFI; in assay [36], 797 MFI; in [37] it was less than 500 MFI; in [38], less than 500 MFI; in assay [39] it was 826 MFI; in assay [40], 788 MFI. The % inhibition (in general, the percentage by which the read-out fell short of the control) in assay [26] came to 7%; in [31], 60%; in [39], 60%; in assay [40], 65%.
